According to the nanobody polyreactivity screen of Harvey et al. (2022):

Assay: yeast display, Sf9 membrane polyspecificity reagent, FACS + sequencing; frameworks hold sequencing errors
Summary of the method: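 Using colony PCR, genes from sorted yeast display clones were amplified, then sequenced on MiSeq at 2 × 250 and filtered by CDR length. The clones had been stained with 10% biotinylated, detergent-solubilized Sf9 membrane reagent for 1 hour at 4 °C and sorted by FACS into low and high (top ~1%) gates on anti-HA and streptavidin fluorescence. Polyreactivity labels come from the gate of origin.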

Q: With “QVQLEDSGGGLVQAGGTLRLSCAASGIIFAYNYMGWNRHATRKERELVATISSAGNTNYADSVKGRFTISRDNAKNTVYLQMNSLKPEETAVYYCAAEFFIVVTDEYDYWGQGTQVTVSS” as the sequence, how does the “polyreactivity (PSR sort gate)” value read?
A: low polyreactivity

Q: Which “polyreactivity (PSR sort gate)” value does the source give for “QVQLVESGGGLVQAGGSLRLSCAASGFICGYNAMGWYRQAPGKERELVASINWSGGRTYYADSVKGRFTISRDNAKITVYLQMNSLKPEHTAVYYCNADGSRRYNYWGQGTQVTVSS” here?
A: low polyreactivity

Q: For “QVQLVESGGGLVQAGGSLRLSCAASGIIFKSYAMGWYRQAPGKERELVAAISSGGSTYYVDSVKGRFTISRDNAKNTVYLQMNSLKPEDTAVYYCNARYKRYSYDYWGHGTQVTVSS”, which “polyreactivity (PSR sort gate)” value is on record?
A: high polyreactivity

Q: Which “polyreactivity (PSR sort gate)” value does the source give for “QVQLVESGGGLVQAGGSLRLSCAASGFTFVYYAMGWYRQAPGKERELVAAISGRGGSTYYADSVKGRFTISRDNAKNTVYLQMNSLKPEDTAVYYCATTYSWYYVPYKPHIYYYWGQGTQVTVSS” here?
A: low polyreactivity

Q: Which “polyreactivity (PSR sort gate)” value does the source give for “QVQLVESGGCLVQAGGSLRLSCAASGLIFLGYAMGWYRQAPGKERELVASIRTGGSTSYADSVKGRFTISRDNAKNTVYLQMYSLKPEDTAVYYCAADRGRPNLPGDYWGQGTQVTVSS” here?
A: low polyreactivity

Q: Which “polyreactivity (PSR sort gate)” value does the source give for “QVQLVESGGGLVQAGGSLRLSCAASGNIFRIYAMGWYRQAPGKERALVAAITSRGAITNYADSVKGRFTISRDYAKNTVYLQMISLKPEDTAVYYCAASYRRLTGVGADEYWGQGTQVTVSS” here?
A: high polyreactivity

Q: With “QVQLVESGGGLVQAGGSLRLSCAASGFIFSKNVMGWYRQATGKERELVALINRSGGTTYYADSVKGRFTISRDNAKNTVYLQMNSLKPEDTAVYYCAARRYGYTSITWYDYLGQGTQVTVSS” as the sequence, how does the “polyreactivity (PSR sort gate)” value read?
A: high polyreactivity

Q: For “QVQLVESGGGLVQAGGSLRLSCAASGRTFENYAMGWYRQAPGKERELVAAISKSGGSTYYADSVKGRFTISRDNAKNTVYLQMNSLKPEDTAVYYCATRLTSAVGRYLYDFGYWGQGTQVTVSS”, which “polyreactivity (PSR sort gate)” value is on record?
A: high polyreactivity

Q: With “QVQRVESGGGLVQAGGSLRLSCAASGRIFEYYAMGWSRQAPGKERELVAAINTGGNTYYADSVKGRFTISRDNAKNTVYLQMNSLKPEDTAVYYCATYPIWYGGYLSGTDYDYWGQGTQVTVSS” as the sequence, how does the “polyreactivity (PSR sort gate)” value read?
A: low polyreactivity

Q: Which “polyreactivity (PSR sort gate)” value does the source give for “QVQLVESGGGLVQAGGSLRLSCAASGRIFRINAMGWYRQAPGKERELVATITSGGRTKYADSVKGRFTISRDNAKNTVYLQMNSLKPEDTAVYYCAADWRVRVRQHIPDKYDYWGQGTQVTVSS” here?
A: low polyreactivity

Q: For “QVQLVDSGGGLVQAGGILRLSCASSGITFPGYDMGWYRQAPGKERDLVARISRSGGSTYYADSVKGRFTISRDNAKNTVYLQMNSLKPEETAVYYCAAGAYRSGGYRFDYWGQGTQVTVSS”, which “polyreactivity (PSR sort gate)” value is on record?
A: low polyreactivity

Q: For “QVQLVESGGGLVQAGGSLRLSSAASGFTFLYNAMGWYRQAPGKERELVASIRTGTGTYYADSVKGRFTISRDNAKNNVYLQMISLKPEDTAVYYCAADYRYKSQWWYRRFDYWGQGTQVNVSS”, which “polyreactivity (PSR sort gate)” value is on record?
A: high polyreactivity

Q: For “QVQLVESGGGLVQAGGSLSLTWAASGRTFLEYTMGWYRQAPGKERELVAAISSTGGSTNYADSVKGRFTISRDNAKNSVYLQMNSVKPEDTAVYYCAARLRRRSATSTRMGYWGLGTQVTVSS”, which “polyreactivity (PSR sort gate)” value is on record?
A: high polyreactivity

Q: Which “polyreactivity (PSR sort gate)” value does the source give for “QVQLVESGGGLVQAGGRLRLSCAASGYIFPKNAMGWYRQAPGKERELVAAITGSGGSTYYADSVKGRFTISRDNAKNTVYLQMNSLKPEDTAVYYCAKRSWIEYDYWGQGTQVTVSS” here?
A: low polyreactivity

Q: Which “polyreactivity (PSR sort gate)” value does the source give for “QVQLVESGGGLVQAGGSLRLSCAASGRTFSKYAMGWDRPAPGKERELVAGISRSGGSTYYADSVKGRFTISRDNAKNTVYLQMNSLKPEDTAVYYCAKRSVGGTGYYWGQGTQVTVSS” here?
A: high polyreactivity

Q: With “QVQLVESGGGLVQAGGRLRLSCAASGRTLSRYAMGWYRQAPGKERELVAAINNGGNTNYADSVKGRFTISRDNAKNTVYLQMNSLKPEDTAVYYCAVRWYPRYGSSYDYWGQGTQVTVSS” as the sequence, how does the “polyreactivity (PSR sort gate)” value read?
A: high polyreactivity

Q: With “QVQLVESGGGLVQAGGSLRLSCASSGSIFSKYAMGWYRQAPGKERELVAAITLNGGSTYYADSVKGRFTISRDNAKNTVYLQMNSLKPEDTAVYYCAKSDRPWWGYYYSWGQGSQVTVSS” as the sequence, how does the “polyreactivity (PSR sort gate)” value read?
A: low polyreactivity

Q: For “QVQLVESGGGLVQAGGSLRLSCAASGRTFWRNAMGWYRQAPGKERELVAAISSSGDRTYYADSVKGRFTISRDNANNTVYLQMNSLKPEDTAVYYCAADVRYSSRFYYWGQGTQVTVSS”, which “polyreactivity (PSR sort gate)” value is on record?
A: high polyreactivity

Q: With “QVQLVESGGGLVQAGGSLRLSCAASGNIFSVYAMGWYRQAPGKERELVAAISSSGGRTYYADSVKGRFTISRENSKNTVYLQMNSLKPEDTAVYYCAARSYTGQFGYWGQGTQVTVSS” as the sequence, how does the “polyreactivity (PSR sort gate)” value read?
A: high polyreactivity

Q: With “QVQLVESGGGLVQAGGSLRLSCAASGSIFVFYAMGWYRQAPGKERELVAAIDVSDGSTYYADSVKGRFTISRDNAKNTVYLQMNSLKPEDTAVYYCATYVVTYYWWYTYDYWGQGTQVTVSS” as the sequence, how does the “polyreactivity (PSR sort gate)” value read?
A: low polyreactivity

Q: For “QVQLVESGGGLVQAGGSLRLSCAASGRTFGYNAMGWYRQAPGKERQLVAAINWSGASTYYADSVKGRFTISRDNAKNTVYLQMNSLKPEDTAVYYCAADYSYIYGFDYWGQGTQVTVSS”, which “polyreactivity (PSR sort gate)” value is on record?
A: low polyreactivity

Q: For “QVQLVESGVGLVQAGGSLRLSCAASGFIFYNYAMGWYRQAPGKERELVASITSGGGTNYADSVKGRFTISRDNAKNTVYLQMNSLKPEDTAVYYCAVRGRGRFNGYGYWGQGTQVTVSS”, which “polyreactivity (PSR sort gate)” value is on record?
A: high polyreactivity

Q: With “QVQLVESGGGLVQAGGSLRLSCAASGRTFYLNAMGWYRQAPGKERELVAAITSSGGRTYYADSVKGRFTISRDNAKNTVYLQMNSLKPEDTAVYYCAAVVSSKPSFYWGQGTQVTVSS” as the sequence, how does the “polyreactivity (PSR sort gate)” value read?
A: low polyreactivity

Q: Which “polyreactivity (PSR sort gate)” value does the source give for “QDQLVESGGGLVQAGGSLRLSCAASGILDRYAMGWYRQAHGKERELFAAISYIAGSTYYADSVKGRFTISRDNAKNTVYLQLNSLKPEVTAVYYCAARGFGTVNGKLYGYWGQGTQVTVSS” here?
A: high polyreactivity

Q: With “QVQLVESGGGLVQAGGSLRLSCAASGSIIGTNVMGWYRQAPGKERELVASISYRDGTTYYADSVKGRFTISRDNAKNTLYLQMNSLKPEDTAVYYCAVANYYSYYWGQGTQVTVSS” as the sequence, how does the “polyreactivity (PSR sort gate)” value read?
A: low polyreactivity

Q: Which “polyreactivity (PSR sort gate)” value does the source give for “QVQLVESGGGLVQAGGSLRLSCAASGGTFKYYAMGWYRQAPGKERELVADITSGGSTNYADYVKGRFTISRDNAKNTVYLQMNSLKPEDTAVYYCAKRRYWVKYDYWGQGTQVTVSS” here?
A: high polyreactivity

Q: Which “polyreactivity (PSR sort gate)” value does the source give for “QVQLVESGGGLVPAGGSLRLSCAASGYTFQYNDRGWYRHAPGKETELVAGISIGGSTNYADSVKGRFTISRDNAKHTVYLQMNSLKPEDTAVYYCAARTLWFPGPTSTTVGYKDGYWGQGTQVTVSS” here?
A: low polyreactivity

Q: For “QVQLVESGGGLVQEGGSLRIICAASGFTFYRYARGWYRQEPGKERELVAAISSHGDRTYYSDSVKGRFTISRDNAKNTVYLQMNSLKPEDTAVYFCNVETLYGYFLHFYLRYYHWGQGTQVTVSS”, which “polyreactivity (PSR sort gate)” value is on record?
A: high polyreactivity

Q: Which “polyreactivity (PSR sort gate)” value does the source give for “QVQLVESGGGLVHAGGSLRLSCAASGRTFCGYAMGRYRHAPGKERELVATNSYSSGSTYYADSVKGRFTISRDNAMNTVYLQMNSLTPEDTAVYYCAARIRYFYRYDYWGQGTQVTVSS” here?
A: high polyreactivity

Q: With “QVQLVESGGGLVQAGGSLRLSCAASGSNFVNNAMGWYRQAPGKERELVASITWSGGRTYYADSVKGRFTISRDNAKNTVDLQMNSLKPEDTAVYYCNKRQYSRTFRYGYWGQGTEVTVSS” as the sequence, how does the “polyreactivity (PSR sort gate)” value read?
A: high polyreactivity

Q: For “QVQLVESGGGLVQAGGSLRLSCASSGSTFSANTKGWYRQAPGKERELVAAINSSGGSSTYYADSVKGRFTISRDNAKNTVYLQMKSLKPEDTAVYYCAAENSVPRGVLGGEFDYWGQGTQVTVSS”, which “polyreactivity (PSR sort gate)” value is on record?
A: low polyreactivity

Q: Which “polyreactivity (PSR sort gate)” value does the source give for “QVQLVESGGGLVQAGGSLRLSCAASGSILQYKAMGWYRQAPGKERELVADITSSGGSTYYADSVKGRFTISRDNAKYTVSLQMNSLKPEDTAVYYFAKDTHWAYYWGQGTQVTVSS” here?
A: low polyreactivity

Q: For “QLQLVESGGGLVQAGARLRLSCAASGSIFRFNPMGWYIPAPGKERELVAAITSSGDSTYYADSVKGRFTISRDNAKYTVYLQMNCLKPEDTAVSDCAAVRNRFIGWTVRYNWARIYNYWGQGTQVTVSS”, which “polyreactivity (PSR sort gate)” value is on record?
A: high polyreactivity

Q: Which “polyreactivity (PSR sort gate)” value does the source give for “QVQLVESGGGLLQAGGSLRLSCAASGSIFQYNAMGWYRQAPGKERELVAAINGGGSTYYADSVKGRFTISRDNAKNTVYLQMNSLKPEDTAVYYCAADGGAYSYRGPGKFGIEDSWGQGTQVTVSS” here?
A: low polyreactivity

Q: With “QVQLVESGGGLVQAGGSLRLSCAASGSTFGVNAMGWYRQAPGKERELVAAIRSAVPTYYADSVKGRFTISRDNAMNTVYLQMNSLKPEETAVYYCAARHRESQRRYDYWGQGTQVTVSS” as the sequence, how does the “polyreactivity (PSR sort gate)” value read?
A: high polyreactivity

Q: With “QVQLVESGGGLDQARGSLRLSCAASGRTSLRYAMGWYRQAPWKERELVAAITSSGATTYYADSVKGRFTISRDNAKNTVYLQMNSLKPEDTAVYYCAAVYSAKRGSGGFGYWGQGTQVTVSS” as the sequence, how does the “polyreactivity (PSR sort gate)” value read?
A: high polyreactivity

Q: For “QVQLVESGVGLVQAGGSHRLSCAASGRTLWYYAIGWYRQAPGKERELVASIRRRTGSTYYAESVKGRFTISRDNAKNTVYLQLNSLKPEDTAVYYCAAKGFLRNGYWGQGTQVTVSS”, which “polyreactivity (PSR sort gate)” value is on record?
A: high polyreactivity

Q: For “QVQLVESGGGLVQAGGSLRLSCAASGSIFRYYTMGWYRQAPGKERELVAAISSRGGSTYYADSVKGRFTISRDNAKNTVYLQMNSLKPEDTAVYYCNVLVKRAYQYTYGVDYWGQGTQVTVSS”, which “polyreactivity (PSR sort gate)” value is on record?
A: high polyreactivity

Q: For “QVQLVESGGGLVQAGGSLRLSCAASGFTFRQNAKGWYRQAPGKERELVAVITKSAGSTYYADSVKGRFTISRDNAKNTVYLQMNSLKPEDTAVFYCNKRQRFVSSFRRSQGIGWEDDYWGQGTQVTVSS”, which “polyreactivity (PSR sort gate)” value is on record?
A: low polyreactivity

Q: For “QVQLLESGGGLVQAGGSLRLSCAASGGTFRPYAMGWYRQAPGKERELVAAISFTGSTYYADSVKGRFTISRDNAKNTVYLQMNSLKPEDTAVYYCAKDFWYPPRFDYWGQGTQVTVSS”, which “polyreactivity (PSR sort gate)” value is on record?
A: low polyreactivity

Q: Which “polyreactivity (PSR sort gate)” value does the source give for “QVQLVESGGGLVQAGGSLRLSCAASGLNFGVNAMGLYRQAPGKERELVAAISRSGGSTYYADSVKGRFTISRDNAKNSVYLQMNSLKPEDTAVYYCAAAAWDPKGSRYDYWGHGTQVTVSS” here?
A: low polyreactivity

Q: For “QVQLVESGGGFVQAGGSLRLSCAASGFIFYMFAMGWYRQAPGKERELVAAITSRGGSTFYADSVKGRFTISRDNAKNTVYLQMNSLKPEDTAVYYCAAVRDLYTYRLGYWGQGTQVTVSS”, which “polyreactivity (PSR sort gate)” value is on record?
A: high polyreactivity

Q: With “QVQLVESGGGLVQAGGSLRLSCAASGRILGLYAMGWYRQAPGKESELVAAISRGGGSTYYADSLKGRFTISRDNAKNTVYLQMNSLKPEDTAVYYCATGLGYFSRLDYWGQGTQVTVSS” as the sequence, how does the “polyreactivity (PSR sort gate)” value read?
A: low polyreactivity
